± gives the standard deviation of the averaged measurements.
B1: library; a variant is named by its letters at N, in order (parent)
chain: GCUGUCACCGAGAAACUGUGAAGUAUAUCUUAAACCUGGGCACUUAAAAGAUAUAUGGAGUUAGUAGUGCAACCUGCUCGGUCUGAUGAGUCCNNNNNNGGACGAAACAGC

How the values were obtained:
cyclic di-GMP [1] = variants of: B1; assay: normalized RNA/DNA level without ligand (relative to sTRSVctl = 100) (log10 (% of sTRSVctl)); HEK293T; ligand: cyclic di-GMP (c-di-GMP-II aptamer); higher = less ribozyme self-cleavage, higher mRNA level; settings: reporter: mCherry (pCS4076), ligand present: no
Procedure, shortened: (§1)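 Ribozyme switch library plasmids linked to reporters were introduced into HEK293T cells at 4 µg per 6-well well, with ligand, if any, added 1 h before. Total RNA was extracted with EDTA 72 h later, reverse-transcribed, amplified, barcoded and sequenced. RNA level was computed from RNA over DNA reads relative to a spiked-in non-cleaving sequence or the top sequences, then scaled and log-transformed. The top set was 25 sequences, values were ×100 and log10, and the cutoff was ≥100 DNA reads.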

cyclic di-GMP [2] = variants of: B1; assay: normalized RNA/DNA level with ligand (relative to sTRSVctl = 100) (log10 (% of sTRSVctl)); HEK293T; ligand: cyclic di-GMP (c-di-GMP-II aptamer); ligand concentration (+) RNA-Seq: 1 mM; higher = less ribozyme self-cleavage, higher mRNA level; settings: reporter: mCherry (pCS4076), ligand present: yes
Procedure, shortened: as §1

Variant | normalized RNA/DNA level without ligand (log10) (cyclic di-GMP [1]) | normalized RNA/DNA level with ligand (log10) (cyclic di-GMP [2])
CAAUGA | 1.53 ± 0.056 | 1.74 ± 0.12
CAAUGG | 1.664 ± 0.0083 | 1.8 ± 0.087
CAAUGC | 1.76 ± 0.076 | 1.83 ± 0.14
GACCCU | 1.779 ± 0.0057 | 1.87 ± 0.089
GACCCG | 1.7824 ± 0.00091 | 1.86 ± 0.11
GACCCC | 1.8 ± 0.055 | 1.88 ± 0.14
GACCCA | 1.75 ± 0.02 | 1.85 ± 0.093
AACCCG | 1.665 ± 0.014 | 1.81 ± 0.06
AACCCA | 1.621 ± 0.0091 | 1.81 ± 0.13
CAAUAC | 1.592 ± 0.015 | 1.73 ± 0.13
CAAUAG | 1.73 ± 0.024 | 1.83 ± 0.14
UACCCC | 1.7914 ± 0.0016 | 1.89 ± 0.11
UACCCG | 1.766 ± 0.014 | 1.9 ± 0.063
AACAAC | 1.542 ± 0.01 | 1.75 ± 0.11
AACAAA | 1.45 ± 0.11 | 1.65 ± 0.079
GACACA | 1.63 ± 0.018 | 1.77 ± 0.07
GACACC | 1.71 ± 0.044 | 1.83 ± 0.075
GACACG | 1.7112 ± 0.0013 | 1.82 ± 0.12
CACAGG | 1.68 ± 0.029 | 1.804 ± 0.0089
CACAGC | 1.729 ± 0.0089 | 1.84 ± 0.085
UAAUGU | 1.652 ± 0.0062 | 1.78 ± 0.087
UAAUGG | 1.676 ± 0.013 | 1.81 ± 0.087
UACCGU | 1.59 ± 0.027 | 1.75 ± 0.1
UACCGG | 1.68 ± 0.025 | 1.87 ± 0.11

Variant | normalized RNA/DNA level without ligand (log10) (cyclic di-GMP [1]) | normalized RNA/DNA level with ligand (log10) (cyclic di-GMP [2])
UACCGA | 1.56 ± 0.058 | 1.77 ± 0.068
UACCGC | 1.73 ± 0.031 | 1.86 ± 0.14
GAAUAC | 1.62 ± 0.026 | 1.78 ± 0.095
GAAUAU | 1.59 ± 0.039 | 1.79 ± 0.077
CACCAA | 1.4 ± 0.088 | 1.57 ± 0.1
CACCAC | 1.675 ± 0.0098 | 1.85 ± 0.096
CACCAU | 1.593 ± 0.0031 | 1.75 ± 0.11
CACCAG | 1.74 ± 0.03 | 1.88 ± 0.11
UACCAC | 1.698 ± 0.0019 | 1.82 ± 0.11
UACCAA | 1.66 ± 0.022 | 1.8 ± 0.12
UACCAG | 1.701 ± 0.003 | 1.83 ± 0.11
CACAAC | 1.59 ± 0.028 | 1.77 ± 0.085
CACAAU | 1.47 ± 0.11 | 1.68 ± 0.097
CACAAG | 1.66 ± 0.017 | 1.83 ± 0.11
UACAAG | 1.69 ± 0.02 | 1.8 ± 0.12
UACAAU | 1.64 ± 0.017 | 1.77 ± 0.13
UACAAA | 1.65 ± 0.041 | 1.8 ± 0.057
AACACC | 1.56 ± 0.007 | 1.73 ± 0.12
AACACG | 1.55 ± 0.073 | 1.74 ± 0.088
CACCCA | 1.59 ± 0.097 | 1.75 ± 0.077
CACCCG | 1.81 ± 0.025 | 1.94 ± 0.12
UACAGU | 1.62 ± 0.021 | 1.8 ± 0.069
UACAGG | 1.65 ± 0.044 | 1.82 ± 0.081
UACAGC | 1.619 ± 0.0088 | 1.77 ± 0.11

Variant | normalized RNA/DNA level without ligand (log10) (cyclic di-GMP [1]) | normalized RNA/DNA level with ligand (log10) (cyclic di-GMP [2])
AAAUAG | 1.54 ± 0.025 | 1.7 ± 0.16
AAAUAC | 1.665 ± 0.0071 | 1.8 ± 0.11
AAAUCA | 1.595 ± 0.0024 | 1.77 ± 0.098
AAAUCC | 1.71 ± 0.049 | 1.83 ± 0.091
AAAUCU | 1.7 ± 0.026 | 1.82 ± 0.13
AAAUCG | 1.54 ± 0.12 | 1.73 ± 0.061
GAAUUC | 1.8 ± 0.021 | 1.92 ± 0.09
GAAUUA | 1.55 ± 0.026 | 1.74 ± 0.097
GAAUUU | 1.652 ± 0.015 | 1.85 ± 0.12
UACAUG | 1.711 ± 0.013 | 1.85 ± 0.14
UACAUU | 1.59 ± 0.034 | 1.78 ± 0.09
UACAUC | 1.64 ± 0.037 | 1.81 ± 0.13
UACAUA | 1.712 ± 0.017 | 1.86 ± 0.065
AACCAC | 1.668 ± 0.0054 | 1.81 ± 0.11
AACCAG | 1.6 ± 0.035 | 1.73 ± 0.13
GACCGC | 1.81 ± 0.036 | 1.8 ± 0.083
GACCGU | 1.74 ± 0.066 | 1.86 ± 0.03
UACACG | 1.76 ± 0.029 | 1.86 ± 0.088
UACACU | 1.714 ± 0.014 | 1.84 ± 0.059
UACACC | 1.6664 ± 0.0013 | 1.8 ± 0.1
UACACA | 1.7 ± 0.041 | 1.84 ± 0.083
UAAUUA | 1.7 ± 0.018 | 1.85 ± 0.062
UAAUUC | 1.73 ± 0.021 | 1.84 ± 0.099
UAAUUG | 1.71 ± 0.04 | 1.83 ± 0.13

Variant | normalized RNA/DNA level without ligand (log10) (cyclic di-GMP [1]) | normalized RNA/DNA level with ligand (log10) (cyclic di-GMP [2])
GAAUGU | 1.579 ± 0.014 | 1.76 ± 0.07
AACCGA | 1.5 ± 0.1 | 1.61 ± 0.089
AACCGC | 1.718 ± 0.0043 | 1.86 ± 0.1
AACCGU | 1.54 ± 0.056 | 1.74 ± 0.091
CAAUCG | 1.77 ± 0.039 | 1.89 ± 0.16
AAAUUC | 1.6899 ± 0.00096 | 1.85 ± 0.11
AAAUUA | 1.54 ± 0.04 | 1.75 ± 0.11
AAAUUU | 1.67 ± 0.067 | 1.82 ± 0.17
GAAUCU | 1.698 ± 0.0076 | 1.82 ± 0.12
GAAUCG | 1.67 ± 0.041 | 1.8 ± 0.096
GAAUCC | 1.75 ± 0.058 | 1.86 ± 0.076
GAAUCA | 1.638 ± 0.0066 | 1.82 ± 0.1
UAAUAC | 1.68 ± 0.013 | 1.81 ± 0.075
UAAUAU | 1.64 ± 0.017 | 1.78 ± 0.11
UAAUCC | 1.8 ± 0.031 | 1.89 ± 0.077
UAAUCA | 1.756 ± 0.0092 | 1.87 ± 0.072
AAAUGG | 1.5 ± 0.092 | 1.68 ± 0.076
GACAAU | 1.59 ± 0.062 | 1.74 ± 0.071
GACAAA | 1.47 ± 0.11 | 1.66 ± 0.077
CACAUC | 1.682 ± 0.0036 | 1.74 ± 0.034
CACAUG | 1.717 ± 0.01 | 1.84 ± 0.095
GACAGG | 1.759 ± 0.0092 | 1.85 ± 0.037
GACAGC | 1.74 ± 0.087 | 1.87 ± 0.14
GACAGU | 1.662 ± 0.0086 | 1.79 ± 0.11

Variant | normalized RNA/DNA level without ligand (log10) (cyclic di-GMP [1]) | normalized RNA/DNA level with ligand (log10) (cyclic di-GMP [2])
AACAUA | 1.52 ± 0.076 | 1.74 ± 0.12
AACAUU | 1.7 ± 0.037 | 1.84 ± 0.067
CACACG | 1.75 ± 0.036 | 1.83 ± 0.095
GACAUG | 1.61 ± 0.032 | 1.75 ± 0.12
GACAUU | 1.66 ± 0.044 | 1.8 ± 0.074
GACAUC | 1.67 ± 0.037 | 1.84 ± 0.059
CAAUUC | 1.66 ± 0.019 | 1.82 ± 0.065
CAAUUA | 1.32 ± 0.1 | 1.53 ± 0.05
CAAUUU | 1.51 ± 0.095 | 1.71 ± 0.081
CAAUUG | 1.733 ± 0.0033 | 1.87 ± 0.065
CACCGA | 1.6252 ± 0.00013 | 1.8 ± 0.1
CACCGG | 1.754 ± 0.011 | 1.89 ± 0.12
CACCGU | 1.706 ± 0.0036 | 1.81 ± 0.092
CACCGC | 1.759 ± 0.015 | 1.85 ± 0.13
GACCAC | 1.69 ± 0.056 | 1.85 ± 0.12
GACCAU | 1.64 ± 0.022 | 1.79 ± 0.13
GACCAG | 1.82 ± 0.088 | 1.91 ± 0.13
GACCAA | 1.52 ± 0.083 | 1.71 ± 0.065
AACAGC | 1.63 ± 0.078 | 1.78 ± 0.14
AACAGG | 1.5 ± 0.036 | 1.66 ± 0.14

— the supplement of paper PMC6757056
